Values quoted from earlier work as cited in PMC9369280.

Experiments:
Experiment in all cases: SPR
FGFR2 (Homo sapiens) = FGFR2 (Homo sapiens) (UniProt P21802)
FGF-1 (Homo sapiens) = FGF-1 (Homo sapiens) (UniProt P05230)
FGF-2 (Homo sapiens) = FGF-2 (Homo sapiens) (UniProt P09038)
UniProt P09038, sequence (P09038 143-288): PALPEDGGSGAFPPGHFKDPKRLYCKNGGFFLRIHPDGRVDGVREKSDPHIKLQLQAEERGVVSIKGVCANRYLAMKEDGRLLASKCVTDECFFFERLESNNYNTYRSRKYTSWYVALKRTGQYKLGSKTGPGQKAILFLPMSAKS

UniProt P21802, sequence (P21802 22-377): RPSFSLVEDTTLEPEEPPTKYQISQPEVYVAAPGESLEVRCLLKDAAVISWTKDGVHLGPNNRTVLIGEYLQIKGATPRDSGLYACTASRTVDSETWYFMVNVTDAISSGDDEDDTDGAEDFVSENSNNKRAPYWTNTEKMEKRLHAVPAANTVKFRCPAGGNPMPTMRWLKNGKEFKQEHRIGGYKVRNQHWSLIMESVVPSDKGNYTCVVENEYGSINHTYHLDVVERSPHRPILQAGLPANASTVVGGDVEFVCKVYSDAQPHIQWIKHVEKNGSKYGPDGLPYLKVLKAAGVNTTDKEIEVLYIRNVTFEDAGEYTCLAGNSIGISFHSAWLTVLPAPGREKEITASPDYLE
UniProt P05230, sequence (P05230 16-155): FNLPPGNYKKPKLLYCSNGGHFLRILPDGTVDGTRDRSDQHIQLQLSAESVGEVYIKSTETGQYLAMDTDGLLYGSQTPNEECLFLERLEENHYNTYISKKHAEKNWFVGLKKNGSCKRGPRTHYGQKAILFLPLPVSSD

Kd (FGFR2 (Homo sapiens)): 7.91 nM
Kd (FGF-1 (Homo sapiens)): 3.98 nM
Kd (FGF-2 (Homo sapiens)): 5.5 nM
Substance: CCN2 (from UniProt P29279)
